B1: Tumor necrosis factor ligand superfamily member 11 (Homo sapiens), O14788 (parent)
chain: MRRASRDYTKYLRGSEEMGGGPGAPHEGPLHAPPPPAPHQPPAASRSMFVALLGLGLGQVVCSVALFFYFRAQMDPNRISEDGTHCIYRILRLHENADFQDTTLESQDTKLIPDSCRRIKQAFQGAVQKELQHIVGSQHIRAEKAMVDGSWLDLAKRSKLEAQPFAHLTINATDIPSGSHKVSLSSWYHDRGWAKISNMTFSNGKLIVNQDGFYYLYANICFRHHETSGDLATEYLQLMVYVTKTSIKIPSSHTLMKGGSTKYWSGNSEFHFYSINVGGFFKLRSGEEISIEVSNPSLLDPDQDATYFGAFKVRDID
partner: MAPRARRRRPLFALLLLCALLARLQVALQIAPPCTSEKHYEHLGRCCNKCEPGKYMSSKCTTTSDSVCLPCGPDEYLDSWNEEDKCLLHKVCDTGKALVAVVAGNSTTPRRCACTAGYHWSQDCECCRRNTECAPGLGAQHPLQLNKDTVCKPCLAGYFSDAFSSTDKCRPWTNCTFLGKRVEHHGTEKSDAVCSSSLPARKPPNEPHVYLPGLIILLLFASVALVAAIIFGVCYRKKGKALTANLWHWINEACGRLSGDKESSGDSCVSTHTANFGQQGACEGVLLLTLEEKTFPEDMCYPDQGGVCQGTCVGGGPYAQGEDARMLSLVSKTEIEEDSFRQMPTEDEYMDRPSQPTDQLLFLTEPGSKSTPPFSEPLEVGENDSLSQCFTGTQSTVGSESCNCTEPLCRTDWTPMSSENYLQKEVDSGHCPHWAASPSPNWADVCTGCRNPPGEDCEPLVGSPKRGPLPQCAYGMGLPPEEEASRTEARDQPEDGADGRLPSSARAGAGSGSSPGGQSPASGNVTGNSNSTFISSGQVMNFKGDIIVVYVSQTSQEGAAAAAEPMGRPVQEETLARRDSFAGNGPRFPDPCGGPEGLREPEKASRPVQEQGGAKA
B2: Tumor necrosis factor ligand superfamily member 11 (Homo sapiens), O14788 (parent)
chain: B1 chain
partner: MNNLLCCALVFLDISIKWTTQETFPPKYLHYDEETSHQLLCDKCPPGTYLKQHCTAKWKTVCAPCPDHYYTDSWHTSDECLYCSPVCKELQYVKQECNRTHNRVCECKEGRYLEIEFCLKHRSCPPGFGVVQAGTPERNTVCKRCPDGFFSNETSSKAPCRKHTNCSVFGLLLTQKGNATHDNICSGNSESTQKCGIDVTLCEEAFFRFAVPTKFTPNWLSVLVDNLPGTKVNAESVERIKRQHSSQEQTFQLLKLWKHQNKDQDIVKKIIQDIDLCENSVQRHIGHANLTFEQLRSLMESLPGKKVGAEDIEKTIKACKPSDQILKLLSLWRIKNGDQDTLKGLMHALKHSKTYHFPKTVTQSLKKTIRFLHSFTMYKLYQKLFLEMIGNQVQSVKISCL
B3: Tumor necrosis factor receptor superfamily member 11B (Homo sapiens), O00300 (parent)
chain: B2 partner
partner: B1 chain

Variants of: B1
Conditions: with tnr11_human TNFRSF11A

effect of a mutation on the interaction	Variant
disrupting interaction strength	MRRASRDYTKYLRGSEEMGGGPGAPHEGPLHAPPPPAPHQPPAASRSMFVALLGLGLGQVVCSVALFFYFRAQMDPNRISEDGTHCIYRILRLHENADFQDTTLESQDTKLIPDSCRRIKQAFQGAVQKELQHIVGSQHIRAEKAMVDGSWLDLAKRSKLEAQPFAHLTINATDIPSGSHKVSLSSWYHDRGWAKISNMTFSNGKLIVNQDGFYYLYANICFAHHETSGDLATEYLQLMVYVTKTSIKIPSSHTLMKGGSTKYWSGNSEFHFYSINVGGFFKLRSGEEISIEVSNPSLLDPDQDATYFGAFKVRDID [R223A]
disrupting interaction strength	MRRASRDYTKYLRGSEEMGGGPGAPHEGPLHAPPPPAPHQPPAASRSMFVALLGLGLGQVVCSVALFFYFRAQMDPNRISEDGTHCIYRILRLHENADFQDTTLESQDTKLIPDSCRRIKQAFQGAVQKELQHIVGSQHIRAEKAMVDGSWLDLAKRSKLEAQPFAHLTINATDIPSGSHKVSLSSWYHDRGWAKISNMTFSNGKLIVNQDGFYYLYANICFRHHETSGDLATEYLQLMVYVTKTSIKIPSSHTLMAGGSTKYWSGNSEFHFYSINVGGFFKLRSGEEISIEVSNPSLLDPDQDATYFGAFKVRDID [K257A]
decreasing interaction strength	MRRASRDYTKYLRGSEEMGGGPGAPHEGPLHAPPPPAPHQPPAASRSMFVALLGLGLGQVVCSVALFFYFRAQMDPNRISEDGTHCIYRILRLHENADFQDTTLESQDTKLIPDSCRRIKQAFQGAVQKELQHIVGSQHIRAEKAMVDGSWLDLAKRSKLEAQPFAHLTINATDIPSGSHKVSLSSWYHDRGWAKISNMTFSNGKLIVNQDGFYYLYANICFRHHETSGDLATEYLQLMVAVTKTSIKIPSSHTLMKGGSTKYWSGNSEFHFYSINVGGFFKLRSGEEISIEVSNPSLLDPDQDATYFGAFKVRDID [Y241A]

Variants of: B2
Conditions: with tr11b_human TNFRSF11B

effect of a mutation on the interaction	Variant
disrupting interaction strength	MRRASRDYTKYLRGSEEMGGGPGAPHEGPLHAPPPPAPHQPPAASRSMFVALLGLGLGQVVCSVALFFYFRAQMDPNRISEDGTHCIYRILRLHENADFQDTTLESQDTKLIPDSCRRIKQAFQGAVQKELQHIVGSQHIRAEKAMVDGSWLDLAKRSKLEAQPFAHLTINATDIPSGSHKVSLSSWYHDRGWAKISNMTFSNGKLIVNQDGFYYLYANICFRHHETSGDLATEYLQLMVYVTKTSIKIPSSHTLMAGGSTKYWSGNSEFHFYSINVGGFFKLRSGEEISIEVSNPSLLDPDQDATYFGAFKVRDID [K257A]
decreasing interaction strength	MRRASRDYTKYLRGSEEMGGGPGAPHEGPLHAPPPPAPHQPPAASRSMFVALLGLGLGQVVCSVALFFYFRAQMDPNRISEDGTHCIYRILRLHENADFQDTTLESQDTKLIPDSCRRIKQAFQGAVQKELQHIVGSQHIRAEKAMVDGSWLDLAKRSKLEAQPFAHLTINATDIPSGSHKVSLSSWYHDRGWAKISNMTFSNGKLIVNQDGFYYLYANICFRHHETSGDLATEYLQLMVAVTKTSIKIPSSHTLMKGGSTKYWSGNSEFHFYSINVGGFFKLRSGEEISIEVSNPSLLDPDQDATYFGAFKVRDID [Y241A]
disrupting interaction strength	MRRASRDYTKYLRGSEEMGGGPGAPHEGPLHAPPPPAPHQPPAASRSMFVALLGLGLGQVVCSVALFFYFRAQMDPNRISEDGTHCIYRILRLHENADFQDTTLESQDTKLIPDSCRRIKQAFQGAVQKELQHIVGSQHIRAEKAMVDGSWLDLAKRSKLEAQPFAHLTINATDIPSGSHKVSLSSWYHDRGWAKISNMTFSNGKLIVNQDGFYYLYANICFAHHETSGDLATEYLQLMVYVTKTSIKIPSSHTLMKGGSTKYWSGNSEFHFYSINVGGFFKLRSGEEISIEVSNPSLLDPDQDATYFGAFKVRDID [R223A]

Variants of: B3
Conditions: with tnf11_human TNFSF11, O14788

effect of a mutation on the interaction	Variant
with no effect	MNNLLCCALVFLDISIKWTTQETFPPKYLHYDEETSHQLLCDKCPPGTYLKQHCTAKWKTVCAPCPDHYYTDSWHTSAACLYCSPVCKELQYVKQECNRTHNRVCECKEGRYLEIEFCLKHRSCPPGFGVVQAGTPERNTVCKRCPDGFFSNETSSKAPCRKHTNCSVFGLLLTQKGNATHDNICSGNSESTQKCGIDVTLCEEAFFRFAVPTKFTPNWLSVLVDNLPGTKVNAESVERIKRQHSSQEQTFQLLKLWKHQNKDQDIVKKIIQDIDLCENSVQRHIGHANLTFEQLRSLMESLPGKKVGAEDIEKTIKACKPSDQILKLLSLWRIKNGDQDTLKGLMHALKHSKTYHFPKTVTQSLKKTIRFLHSFTMYKLYQKLFLEMIGNQVQSVKISCL [D78A;E79A]
decreasing interaction strength	MNNLLCCALVFLDISIKWTTQETFPPKYLHYDEETSHQLLCDKCPPGTYLKQHCTAKWKTVCAPCPDHYYTDSWHTSDECLYCSPVCKELQYVKQECNRTHNRVCECKEGRYLEIAFCLKHRSCPPGFGVVQAGTPERNTVCKRCPDGFFSNETSSKAPCRKHTNCSVFGLLLTQKGNATHDNICSGNSESTQKCGIDVTLCEEAFFRFAVPTKFTPNWLSVLVDNLPGTKVNAESVERIKRQHSSQEQTFQLLKLWKHQNKDQDIVKKIIQDIDLCENSVQRHIGHANLTFEQLRSLMESLPGKKVGAEDIEKTIKACKPSDQILKLLSLWRIKNGDQDTLKGLMHALKHSKTYHFPKTVTQSLKKTIRFLHSFTMYKLYQKLFLEMIGNQVQSVKISCL [E116A]

Reference: IntAct's records for PubMed 22664871
